Measured values from publication PMC8809517, “Cofactor-independent RNA editing by a synthetic S-type PPR protein”.
Numbering of substitutions follows the chain as printed.

Assays:
Test in all cases: high-throughput RNA pulldown from lysate on Ni-NTA beads; HRP: 50 mM Tris pH 8, 150 mM NaCl, 1 mM beta-mercaptoethanol, 50 ug/ml BSA, 3 ug/ml yeast RNA, 0.5% heparin; ITC and FP: Tris pH 8, 200 mM KCl, 5% glycerol; MST: 50 mM Tris pH 8, 200 mM NaCl, 1 mM DTT, BSA, heparin, 0.05% Tween 20
Conditions in all cases: tags: N-terminal His-eGFP
[1] = biological target: T1, GFP-9S library array, motif 4 ND N98D (synthetic construct, N98D)
T1 chain: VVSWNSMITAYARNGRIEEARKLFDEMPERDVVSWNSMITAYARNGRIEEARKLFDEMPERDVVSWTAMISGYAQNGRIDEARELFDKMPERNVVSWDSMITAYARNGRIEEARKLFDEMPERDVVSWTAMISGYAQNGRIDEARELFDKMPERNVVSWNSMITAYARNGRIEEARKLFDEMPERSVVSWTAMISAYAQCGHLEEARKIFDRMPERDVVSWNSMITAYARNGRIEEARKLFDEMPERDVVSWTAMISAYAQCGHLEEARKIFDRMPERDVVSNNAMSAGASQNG

[2] = biological target: T2, GFP-9S library array, motif 4 ND N98S;D124K (synthetic construct, N98S;D124K)
T2 chain: T1 chain with D98S, D124K

[3] = biological target: T3, GFP-9S library array, motif 4 ND N98L (synthetic construct, N98L)
T3 chain: T1 chain with D98L

[4] = biological target: T4, GFP-9S library array, motif 4 ND N98H;D124T (synthetic construct, N98H;D124T)
T4 chain: T1 chain with D98H, D124T

[5] = biological target: T5, GFP-9S library array, motif 4 ND N98F;D124F (synthetic construct, N98F;D124F)
T5 chain: T1 chain with D98F, D124F

Binder: AUUAUACGUGA (ssRNA) [IR-rpoA-U]
- Kd ([1]; label: 5' IRDye 800CW): 315 nM
- Kd ([2]; label: 5' IRDye 800CW): 105 nM
- Kd ([3]; label: 5' IRDye 800CW): 66.3 nM
- Kd ([4]; label: 5' IRDye 800CW): 24.9 nM
- Kd ([5]; label: 5' IRDye 800CW): 140 nM

Binder: AUUAGACGUGA (ssRNA) [Cy5-rpoA-G]
- Kd ([1]; label: 5' Cy5): 55.1 nM
- Kd ([2]; label: 5' Cy5): 104 nM
- Kd ([3]; label: 5' Cy5): 183 nM
- Kd ([4]; label: 5' Cy5): 75 nM
- Kd ([5]; label: 5' Cy5): 92.1 nM

Binder: AUUACACGUGA (ssRNA) [Cy5-rpoA]
- Kd ([1]; label: 5' Cy5): 395 nM
- Kd ([2]; label: 5' Cy5): 86.7 nM
- Kd ([3]; label: 5' Cy5): 214 nM
- Kd ([4]; label: 5' Cy5): 50.9 nM
- Kd ([5]; label: 5' Cy5): 76.4 nM

Binder: AUUAAACGUGA (ssRNA) [IR-rpoA-A]
- Kd ([1]; label: 5' IRDye 800CW): 531 nM
- Kd ([2]; label: 5' IRDye 800CW): 134 nM
- Kd ([3]; label: 5' IRDye 800CW): 452 nM
- Kd ([4]; label: 5' IRDye 800CW): 103 nM
- Kd ([5]; label: 5' IRDye 800CW): 200 nM
